Target: human transforming growth factor β2 (TGFβ2) (human) (UniProt P61812)
Test: cell-based or functional assay

human transforming growth factor β2 (TGFβ2) (human), sequence (P61812 303-414 limits assumed): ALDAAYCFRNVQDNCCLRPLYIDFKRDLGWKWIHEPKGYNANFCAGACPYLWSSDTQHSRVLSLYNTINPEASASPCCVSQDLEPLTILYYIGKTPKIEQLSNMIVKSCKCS

Substance: latency-associated protein (LAP)
- Ki, reversal of TGFβ2-mediated inhibition of 3H-thymidine incorporation in mink lung epithelial cells: 0.5 nM
